Experimental data reported in article PMC7744066.

Molecular target: Aldob (aldolase B) (UniProt P05062)
Assay: anti-Flag (Aldob) co-IP, Myc-Akt1 blot
Conditions: reference: Myc-Akt1 wild type

Substance | binding against the reference (sites S473) | binding against the reference (sites T308)
Akt1 (from UniProt P31749) Myc-Akt1 S473A | weaker | 
Akt1 (from UniProt P31749) Myc-Akt1 T308A |  | weaker
